# Data published in patent US20250154215A1, “PHARMACEUTICAL COMPOSITION FOR TREATING COLITIS OR COLORECTAL CANCER COMPRISING COLON-TARGETED S100A8/A9-DERIVED SPECIFIC PEPTIDE” (Industry-University Cooperation Foundation Hanyang …, priority 2023, published 2025).
# Entries after “also recorded” stand apart in the source; their conditions may differ.
# B1: TWYKIAFQRNRKTWYKIAFQRNRKTWYKIAFQRNRKTWYKIAFQRNRKTWYKIAFQRNRKGGFLVIKGGAHKSHKGGITIITFGGGHHGGFLVIKGGAHKSHKGGITIITFGGGHHGGFLVIKGGAHKSHKGGITIITFGGGHHGG (protein)
# chain: TWYKIAFQRNRKTWYKIAFQRNRKTWYKIAFQRNRKTWYKIAFQRNRKTWYKIAFQRNRKGGFLVIKGGAHKSHKGGITIITFGGGHHGGFLVIKGGAHKSHKGGITIITFGGGHHGGFLVIKGGAHKSHKGGITIITFGGGHHGG
# modifications: N-terminal 6xHis tag
# Legend:
# [1] = format: in vitro ADME; details: human, 0.5 h
# Experimental: Human plasma of each culture tube treated with S100A8/A9 peptide (10 μM) or rCT-S100A8/A9 protein (10 μg/mL) was incubated at 37° C. for 0, 30, and 120 minutes, respectively. At the designated time, an acetonitrile internal standard solution of chlorpropamide was added to each culture tube, and the resulting mixture was shaken with a vortex mixer for five minutes and centrifuged for additional five minutes (14,000 rpm, 4° C.). The supernatant was then injected into an LC-MS/MS system to analyze the plasma stability of the tested substances.
# [2] = format: in vitro ADME; details: human, microsomes, 0.5 h
# Experimental: 0.1 M phosphate buffer (pH 7.4) and S100A8/A9 peptide ([…]) or rCT-S100A8/A9 protein (10 μg/mL) were added to human liver microsomes (0.5 mg/mL). After incubation at 37° C. for five minutes, the NADPH-generating system solution was also added and incubated again at 37° C. for 30 minutes. To terminate the reaction, acetonitrile containing an internal standard (clopramide) was added, and the resulting mixture was centrifuged for five minutes (14,000 rpm, 4° C.). The supernatant was then injected into an LC-MS/MS system to analyze the microsomal stability of the tested substances.
# [3] = DSS-induced chronic colitis mouse model; format: in vivo, mice
# Experimental: (§1) DSS-induced acute or chronic colitis and AOM/DSS CRC mouse models were prepared using 6-week-old C57BL/6 female mice (Samtako Bio, Osan, Korea). To assess the induction of acute colitis, mice were exposed ad libitum to 3% (w/v) dextran sodium sulfate (molecular weight: 36-50 kDa, MP Biomedicals, Santa Ana, CA, USA) dissolved in drinking water. The mouse models are illustrated in FIGS. 7A, 5E, and 6A. DSS solutions were prepared every two days. […] The humane endpoint for weight loss (requiring euthanasia) was 20% (compared to the original body weight of an animal). Without an approved exception request, body weight loss could not exceed 20%.
# The clinical score of colitis was obtained by measuring body weight, fecal occult blood or total blood loss, and stool consistency every other day during the induction of colitis. The clinical score were assessed by two trained investigators who were randomly selected. For immunohistochemical analysis of tissue sections, mouse distal colon tissues were fixed in 10% formalin and embedded in paraffin. Paraffin sections ([…]) were cut and stained with H&E. Histopathological scoring was performed by a certified pathologist (Min-Kyung Kim, Department of Pathology, Kim Min-Kyung Pathology Clinic, Seoul, Korea) who scored each organ section independently without prior knowledge of the treatment group.
# Next, the therapeutic effect of rCT-S100A8/A9 on chronic colitis was confirmed. Chronic DSS colitis was induced by three cycles of DSS+water combination, and intraperitoneal rCT-S100A8/A9 injection was performed once a day for three consecutive days of DSS administration in each cycle.
# [4] = AOM/DSS-induced colitis-associated colorectal cancer (CAC) mouse model; format: in vivo, mice
# Excerpt: Weight of mice compared to baseline during AOM/DSS administration. In this experiment, weight loss is a surrogate indicator of colitis severity. Data is representative of two independent experiments with similar results. […] Note the higher tumor burden in the distal colon/rectum and the characteristic wrinkled texture of the proximal colon with little tumor growth. […] Most tumors are located in the distal colon, and their sizes are less than 2 mm. Data is shown as the mean±SD of six experiments. […] H&E and β-catenin stained slides show dysplastic changes similar to human colonic adenocarcinoma;
# as §1
# AOM/DSS-treated mice were administered rCT-S100A8/A9 four times according to the administration frequency during three DSS cycles until week 10 (FIG. 9A, top). […] Tumor induction by AOM/DSS treatment was mainly observed in the distal colon and produced colonic shortening in the CAC mouse model.
# [5] = tested on: OxaR HCT116 xenograft; assay: Parental or OxaR HCT116 xenograft tumor growth inhibition; format: in vivo, mice
# Experimental: For tumor xenograft experiments, 4- to 6-week-old female athymic nude mice (Central Lab Animal Inc., Seoul, Korea) were used. 1×10^6 HCT116 cells suspended in 0.1 mL of a cell culture medium were injected subcutaneously into the animals' right axillary region and observed for 7 to 10 days while the tumor volume was measured. Treatment was initiated when the tumor size reached an average volume of 200 or 600 mm^3. The tumor volume was measured with a skin caliper every three days, calculated as (tumor length)×(tumor width)^2×0.5, and expressed in mm^3. All animals were maintained in a specific pathogen-free environment. All animal-related procedures were examined and approved by the Hanyang University Institutional Animal Care and Use Committee (protocol numbers: 2022-0145 and 2022-0266).
# Next, tumor growth inhibition assays were performed under various tumor growth conditions, and rCT-S100A8/A9 treatment was started according to the size of the established tumors. For initial tumor growth, rCT-S100A8/A9 treatment was started 10 days after tumor establishment, and for actively growing tumors, rCT-S100A8/A9 treatment was started 21 days after tumor establishment.
# [6] = immunostaining, vs control group
molecule,measurement,setting,value
B1,"plasma stability, remaining",[1],100%
same,"microsomal stability, remaining",[2],92%
same,colon damage (H&E staining),[3]; 2.5% DSS chronic colitis,decreased; also recorded: alleviated
same,colon length,[3]; 2.5% DSS chronic colitis,recovered
same,survival rates,[3]; DSS-induced chronic colitis,significantly increased
same,body weight loss,[3]; i.p. once a day for three consecutive days per DSS cycle,significantly reduced body weight loss
same,macrophage polarization (M1/M2 markers),"[3]; macrophages and colonic lysates, real-time PCR",not affected
same,colonic length,[4]; AOM/DSS,restored
same,histological colonic damage (H&E),[4]; AOM/DSS,significant alleviation; also recorded: significantly alleviated
same,tumor burden in the distal colon,[4]; AOM/DSS,decreased
same,β-catenin protein levels in colon (immunohistochemistry),[4]; AOM/DSS,effectively suppressed
same,body weight gain,"[4]; AOM/DSS, three DSS cycles until week 10",higher weight gain rate according to the treatment frequency; also recorded: increased
same,epithelial-to-mesenchymal transition (profiler PCR array),[4]; CRC colon tissues,regulated
same,number of tumors less than 2 mm,[4]; treatment for three consecutive days,significantly reduced
same,epithelial-to-mesenchymal transition in tumors (profiler PCR array),[5]; HCT116 xenografts,regulates the involvement of epithelial-to-mesenchymal transition
same,interaction of S100 and PRRs in xenograft tumors,[5]; Western blot,significantly reduced
same,expression of E-cadherin in tumor sections,[5]; [6],increased
same,expression of N-cadherin and β-catenin in tumor sections,[5]; [6],decreased
same,tumor growth,[5]; initially growing and actively growing tumors,significantly inhibited tumor growth
